This is an account of results in article PMC3282893.

For this experiment, the target named is human IgG1 (solid phase in surface plasmon resonance) (human). Put plainly: SPR.

For the substance “soluble recombinant FcγRIIa-HR (high-responder, arginine R134 allele of FcγRIIa), glycosylated (from UniProt P12318 37-206) (receptor)”, the Kd (commonly the equilibrium constant for the complex coming apart) came to 500 µM.
